Data as given in patent US20130130288A1 (published 2013).

How the values were obtained:
[1] = molecular target: T1, amyloid β-derived diffusible ligands (ADDLs), oligomers of Aβ1-42; test: BIACORE (SPR)
T1 construct: number of copies not defined; also called Aβ oligomers; Aβ oligomer

Aβ1-40 monomer [2] = molecular target: T2, Aβ1-40 monomer; test: BIACORE (SPR)
T2 construct: also called Aβ40 monomer; monomer Aβ

[3] = molecular target: T1, amyloid β-derived diffusible ligands …; test: competitive ELISA, ratio of the two competition EC50 values
Aβ1-40 monomer [4] = molecular target: T2, Aβ1-40 monomer; test: ELISA on coated antigen, chemiluminescence; antibody stored 1 month at 40°
[5] = molecular target: T1, amyloid β-derived diffusible ligands …; test: KINEXA; constant for Aβ1-40 over constant for ADDLs
[6] = molecular target: T1, amyloid β-derived diffusible ligands …; test: BIACORE (SPR); affinity for Aβ1-40 over affinity for ADDLs
Aβ1-40 monomer [7] = molecular target: T2, Aβ1-40 monomer; test: ELISA on coated antigen, chemiluminescence; antibody stored 1 month at 4°
Aβ1-40 monomer [8] = molecular target: T2, Aβ1-40 monomer; test: one-sided ELISA, plate coated with 100 pmol/well Aβ1-40, chemiluminescence
[9] = molecular target: T1, amyloid β-derived diffusible ligands …; test: KINEXA, equilibrium constant in solution
Aβ1-40 monomer [10] = molecular target: T2, Aβ1-40 monomer; test: KINEXA, equilibrium constant in solution
[11] = molecular target: T1, amyloid β-derived diffusible ligands …; test: three-pronged Aβ ELISA (M90/1 polyclonal capture); ratio of binding to ADDLs over fibrillar Aβ
Aβ1-40 monomer [12] = molecular target: T2, Aβ1-40 monomer; test: ELISA on coated antigen, chemiluminescence; antibody at 0 timepoint
[13] = molecular target: T1, amyloid β-derived diffusible ligands …; test: ERENNA sandwich immunoassay, 19.3 capture, labelled 82E1 detection
[14] = molecular target: T1, amyloid β-derived diffusible ligands …; test: one-sided ELISA, plate coated with 50 pmol/well Aβ oligomers, chemiluminescence
[15] = molecular target: T1, amyloid β-derived diffusible ligands …; test: three-pronged Aβ ELISA (M90/1 polyclonal capture); ratio of binding to ADDLs over monomeric Aβ
Aβ1-40 monomer [16] = molecular target: T2, Aβ1-40 monomer; test: ELISA on coated antigen, chemiluminescence; antibody stored 1 month at 25°
[17] = molecular target: T1, amyloid β-derived diffusible ligands …; test: sandwich ELISA, 19.3 capture and 82E1 detection, luminescence (ENVISION)
[18] = molecular target: T1, amyloid β-derived diffusible ligands …; test: competitive ELISA
[19] = molecular target: T1, amyloid β-derived diffusible ligands …; test: ELISA, IgG2 antibodies
[20] = molecular target: T1, amyloid β-derived diffusible ligands …; test: one-sided ELISA on coated Aβ oligomers or Aβ1-40
[21] = molecular target: T1, amyloid β-derived diffusible ligands …; test: … bead-based immunoassay; signal at 0.2 pM ADDLs greater than at 1000 pM Aβ1-40

| Binder | EC50 (Aβ1-40 monomer [4]) [nM] | EC50 (Aβ1-40 monomer [7]) [nM] | ADDL:Fibrillar [11] [ratio] | EC50 (Aβ1-40 monomer [12]) [nM] | ADDL:Monomer [15] [ratio] | other results |
| --- | --- | --- | --- | --- | --- | --- |
| anti-ADDL antibody 19.3 (antibody, V domains shown) VH: EVQLVESGGGLVQPGGSLRLSCAASGFTFSSFGMHWVRQAPGKGLEWVAYISRGSSTIYYADTVKGRFTISRDNAKNSLYLQMNSLRAEDTAVYYCARGITTALDYWGQGTLVTVSS VL: DVVMTQSPLSLPVTPGEPASISCRSSQSIVHSNGNTYLEWYLQKPGQSPQLLIYKASNRFSGVPDRFSGSGSGTDFTLKISRVEAEDVGVYYCFQGSRLGPSFGQGTKLEIKR | 88.8 | 16.3 | 2 | 10.1 | 2.5 | Kd [1]: 4.8 nM; Kd (Aβ1-40 monomer [2]): 150 nM; affinity for Aβ1-42 oligomers compared to Aβ1-40 monomers [3]: ~630 ratio; Ratio (Aβ monomer/ADDL) [5]: ~6.2 ratio; Ratio (Aβ monomer/ADDL) [6]: ~31 ratio; EC50 (Aβ1-40 monomer [8]): ~4.3 nM; Kd [9]: 2.7 nM; Kd (Aβ1-40 monomer [10]): 16.7 nM; fold selectivity of the assay for Aβ oligomers over Aβ 40 monomer [13]: 5000 fold; EC50 [14]: ~1.6 nM; EC50 (Aβ1-40 monomer [16]): 22.1 nM; fold selectivity for Aβ oligomer signal as compared to Aβ40 monomers [17]: ~1000 fold; fold higher concentration of Aβ1-40 needed to displace 50% of 19.3 from Aβ oligomers than of Aβ oligomers to displace 19.3 from Aβ1-40 [18]: ~600 fold; EC50 [19]: 0.8 nM; fold greater potency for Aβ oligomers as compared to Aβ40 monomer [20]: ~3.7 fold; ADDL versus monomeric Aβ selectivity [21]: ~5000 fold |
| anti-ADDL antibody 11.4 (antibody, V domains shown) VH: EVQLVESGGGLVQPGGSLRLSCAASGFTFSSFGMHWVRQAPGKGLEWVAYISRGSSTIYYADTVKGRFTISRDNAKNSLYLQMNSLRAEDTAVYYCARGITTALDYWGQGTLVTVSS VL: DVVMTQSPLSLPVTPGEPASISCRSSQSIVHSNGNTYLEWYLQKPGQSPQLLIYKASNRFSGVPDRFSGSGSGTDFTLKISRVEAEDVGVYYCFQGSRVPVRFGQGTKLEIKR | – | – | 2.4 | – | 2.4 | – |
| 19.3 N33S (antibody, V domains shown) VH: EVQLVESGGGLVQPGGSLRLSCAASGFTFSSFGMHWVRQAPGKGLEWVAYISRGSSTIYYADTVKGRFTISRDNAKNSLYLQMNSLRAEDTAVYYCARGITTALDYWGQGTLVTVSS VL: DVVMTQSPLSLPVTPGEPASISCRSSQSIVHSSGNTYLEWYLQKPGQSPQLLIYKASNRFSGVPDRFSGSGSGTDFTLKISRVEAEDVGVYYCFQGSRLGPSFGQGTKLEIL | 29.9 | 59.1 | – | 55.1 | – | EC50 (Aβ1-40 monomer [16]): 24.3 nM |
| anti-ADDL antibody 17.1 (antibody, V domains shown) VH: EVQLVESGGGLVQPGGSLRLSCAASGFTFSSFGMHWVRQAPGKGLEWVAYISRGSSTIYYADTVKGRFTISRDNAKNSLYLQMNSLRAEDTAVYYCARGITTALDYWGQGTLVTVSS VL: DVVMTQSPLSLPVTPGEPASISCRSSQSIVHSNGNTYLEWYLQKPGQSPQLLIYKASNRFSGVPDRFSGSGSGTDFTLKISRVEAEDVGVYYCFQGSRVPASFGQGTKLEIKR | – | – | 2.1 | – | 3.2 | – |
| anti-ADDL antibody 13.1 (antibody, V domains shown) VH: EVQLVESGGGLVQPGGSLRLSCAASGFTFSSFGMHWVRQAPGKGLEWVAYISRGSSTIYYADTVKGRFTISRDNAKNSLYLQMNSLRAEDTAVYYCARGITTALDYWGQGTLVTVSS VL: DVVMTQSPLSLPVTPGEPASISCRSSQSIVHSNGNTYLEWYLQKPGQSPQLLIYKASNRFSGVPDRFSGSGSGTDFTLKISRVEAEDVGVYYCFQGSKAHPSFGQGTKLEIKR | – | – | 2 | – | 2.4 | – |
| anti-ADDL antibody 14.2 (antibody, V domains shown) VH: EVQLVESGGGLVQPGGSLRLSCAASGFTFSSFGMHWVRQAPGKGLEWVAYISRGSSTIYYADTVKGRFTISRDNAKNSLYLQMNSLRAEDTAVYYCARGITTALDYWGQGTLVTVSS VL: DVVMTQSPLSLPVTPGEPASISCRSSQSIVHSNGNTYLEWYLQKPGQSPQLLIYKASNRFSGVPDRFSGSGSGTDFTLKISRVEAEDVGVYYCFQGSRVPPGFGQGTKLEIKR | – | – | – | – | 4.2 | – |
| 19.3 N33T (antibody, V domains shown) VH: EVQLVESGGGLVQPGGSLRLSCAASGFTFSSFGMHWVRQAPGKGLEWVAYISRGSSTIYYADTVKGRFTISRDNAKNSLYLQMNSLRAEDTAVYYCARGITTALDYWGQGTLVTVSS VL: DVVMTQSPLSLPVTPGEPASISCRSSQSIVHSTGNTYLEWYLQKPGQSPQLLIYKASNRFSGVPDRFSGSGSGTDFTLKISRVEAEDVGVYYCFQGSRLGPSFGQGTKLEIL | 96.3 | 307 | – | 332 | – | – |
